Assay [1] has as its target T1, biotinylated ctCSP Pf16 peptide (residues 283–375 of P. falciparum 3D7 CSP) (Plasmodium falciparum 3D7, UniProt Q7K740, biotin (position not given)).
T1 construct: circumsporozoite protein (CSP), P. falciparum 3D7, residues 283-375 (C-terminal domain); the results say biotinylated ctCSP (283-375); also called Pf16 C-term peptide; source: made by Biomatik (Wilmington, Delaware)
Put plainly: ELISA; expressed mAbs screened for reactivity to Pf16 C-term peptide, as previously described [36]. Particulars: both partners purified.

The target in assay [2] is T2, αTSR domain or ctCSP (residues 310–375 of P. falciparum 3D7 CSP) (Plasmodium falciparum 3D7, UniProt Q7K740).
T2 construct: circumsporozoite protein (CSP), P. falciparum 3D7, residues 310-375 (αTSR domain), followed by a 6xHis tag; pET28a; also called 3D7 peptide; source: E. coli SHUFFLE, purified (Ni cOmplete resin, gel filtration on Superdex 200)
T2 sequence (Q7K740 310-375): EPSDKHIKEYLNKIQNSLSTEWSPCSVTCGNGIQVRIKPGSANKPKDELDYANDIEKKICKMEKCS
As to the kind of experiment: crystal structure; Fab mixed with ctCSP (310-375) in a 2:1 molar ratio, complex purified by size exclusion chromatography, sitting drop vapor diffusion at 20°C. The note with it: both partners purified. On the technique in general: In gel filtration, larger molecules generally elute earlier.

T1 sequence (Q7K740 283-375): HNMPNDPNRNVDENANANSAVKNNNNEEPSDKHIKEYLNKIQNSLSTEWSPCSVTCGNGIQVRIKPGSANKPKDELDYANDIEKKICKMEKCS

B1: mAb352 (antibody, V domains shown)
VH: EVQLVESGGGLVKPGGSLRLSCAASGFSFSEYRMNWVRQAPGKGLEWVSFISSSGTYIDYADSVKGRFTISRDNVNNSLYLQMNNLRAGDTAVYYCARGMGIAVRRFDYWGQGTLVSVSS
VL: SYVLTQPPSVSVAPGQTAKITCGGNNIGSESVHWYQQKPGQAPVLVVYDDAVRPSGIPERFSGSNSRNTATLTISRVEAGDEAAYYCQVWDSSTVASFGGGTKLTVL
notes: variable region as the heavy chain of m3 (PDB 7S0X); as the light chain of m3 (PDB 7S0X); IgG (captured by anti-human Fc); source: 293F cells, purified (Protein G Sepharose)
Turning to B1, the binding result in assay [1] is “binds”.

B2: Fab352 (Fab, V domains shown)
VH: EVQLVESGGGLVKPGGSLRLSCAASGFSFSEYRMNWVRQAPGKGLEWVSFISSSGTYIDYADSVKGRFTISRDNVNNSLYLQMNNLRAGDTAVYYCARGMGIAVRRFDYWGQGTLVSVSS
VL: SYVLTQPPSVSVAPGQTAKITCGGNNIGSESVHWYQQKPGQAPVLVVYDDAVRPSGIPERFSGSNSRNTATLTISRVEAGDEAAYYCQVWDSSTVASFGGGTKLTVL
notes: heavy chain of Fab352; light chain of Fab352; From an RTS,S/AS01 vaccinee; alpha-ctCSP class (IGHV3-21 or IGHV3-48 with IGLV3-21 or IGLV3-1); source: ExpiCHO cells, purified (HiTrap Protein G HP, size exclusion chromatography)
Regarding B2, the binding result in assay [2] is recorded as “binds”.

B3: mAb234 (antibody, V domains shown)
VH: EVQLVESGGGLVKPGGSLRLSCAASGFNFSTHIMNWVRQAPGKGLEWVSSISSSGTYIYYADSMKGRFTISRDNPKNSLYLQMNSLRAEDTAVYYCARARGFIQFHYYMDVWGKGTTVAVSS
VL: SYVLTQPPSVSVAPGKTARITCGGNNIGSKSVHWHQQRPGQAPVLVVYDDKIRPSGIPERFSGSNSGNTATLIISRVEAGDEADYYCQVWHSSSDPVVFGGGTKLTVL
notes: variable region as the heavy chain of m1 (PDB 7RXI); as the light chain of m1 (PDB 7RXI); IgG (captured by anti-human Fc); source: 293F cells, purified (Protein G Sepharose)
Take B3: the binding result in assay [1] is “binds”.

B4: Fab234 (Fab, V domains shown)
VH: EVQLVESGGGLVKPGGSLRLSCAASGFNFSTHIMNWVRQAPGKGLEWVSSISSSGTYIYYADSMKGRFTISRDNPKNSLYLQMNSLRAEDTAVYYCARARGFIQFHYYMDVWGKGTTVAVSS
VL: SYVLTQPPSVSVAPGKTARITCGGNNIGSKSVHWHQQRPGQAPVLVVYDDKIRPSGIPERFSGSNSGNTATLIISRVEAGDEADYYCQVWHSSSDPVVFGGGTKLTVL
notes: heavy chain of Fab234; light chain of Fab234; From an RTS,S/AS01 vaccinee; alpha-ctCSP class (IGHV3-21 or IGHV3-48 with IGLV3-21 or IGLV3-1); source: ExpiCHO cells, purified (HiTrap Protein G HP, size exclusion chromatography)
With B4, the binding result in assay [2] is recorded as “binds”.

B5: Fab1488 (Fab, V domains shown)
VH: EVHLVESGGGLVKPGGSLRLSCAASGFTFSSYTMNWVRQAPGKGLEWVSSISSSSTYIYYADSVRGRFTISRDNAKNSLYLQMNSLRAEDSAVYYCARRAGGFDAYYFDYWGQGTLVTVSS
VL: not shown
notes: heavy chain of Fab1488; light chain of Fab1488; From an RTS,S/AS01 vaccinee; alpha-ctCSP class (IGHV3-21 or IGHV3-48 with IGLV3-21 or IGLV3-1); source: ExpiCHO cells, purified (HiTrap Protein G HP, size exclusion chromatography)
Take B5: the binding result in assay [2] is on record as “binds”.

B6: Fab1512 (Fab, V domains shown)
VH: KVQLVQSGGGVVQPGRSQRLSCAASGLTLSEYAMHWVRQAPGKGLEWVAVILSDGTKKEYADSVKGRFTISRDNSKNTLYLQMNSLRAEDTAVYYCATDDNILGHCRSKSCQRNYYHGMDVWGQGTTVSVSS
VL: DIVMTQSPLSLPVTPGEPASISCRSSQSLLHSNGKNYLDWYLQKPGQSPQLLIYLGSDRASGVPDRFSGSGSGTDFTLSISRVEAEDVGVYYCMQALQTPFTFGPGTKVDIK
notes: heavy chain of Fab1512 (23-amino-acid CDR H3); light chain of Fab1512; From an RTS,S/AS01 vaccinee; beta-ctCSP class; source: ExpiCHO cells, purified (HiTrap Protein G HP, size exclusion chromatography)
Take B6: the binding result in assay [2] is given as “binds”.

B7: mAb1512 (antibody, V domains shown)
VH: KVQLVQSGGGVVQPGRSQRLSCAASGLTLSEYAMHWVRQAPGKGLEWVAVILSDGTKKEYADSVKGRFTISRDNSKNTLYLQMNSLRAEDTAVYYCATDDNILGHCRSKSCQRNYYHGMDVWGQGTTVSVSS
VL: DIVMTQSPLSLPVTPGEPASISCRSSQSLLHSNGKNYLDWYLQKPGQSPQLLIYLGSDRASGVPDRFSGSGSGTDFTLSISRVEAEDVGVYYCMQALQTPFTFGPGTKVDIK
notes: variable region as the heavy chain of m5 (PDB 7RXP); as the light chain of m5 (PDB 7RXP); IgG (captured by anti-human Fc); source: 293F cells, purified (Protein G Sepharose)
Take B7: the binding result in assay [1] was “binds”.

B8: mAb236 (antibody, V domains shown)
VH: EVQLVESGGGLVQPGGSLRLSCVASGFNFTTYSMNWVRQAPGKGLEWVSYISSHSNLIYYATSVKGRFTISRDNAKNSLYLQMNSLRAEDTALYYCARGGSLHPSAGADWIDPWGQGTLVTVSS
VL: SYELTQAPSVSVSPGQTATITCSGDKLGDKFTSWYQQKPGQSPVLVIYQDSKRPSGIPERFSASNSGNTATLTISGTRAMDEADYYCQAWDSNTYVFGTGTRVAVL
notes: variable region as the heavy chain of m2 (PDB 7RXJ); as the light chain of m2 (PDB 7RXJ); IgG (captured by anti-human Fc); source: 293F cells, purified (Protein G Sepharose)
Turning to B8, in assay [1], the binding result is on record as “binds”.

B9: Fab236 (Fab, V domains shown)
VH: EVQLVESGGGLVQPGGSLRLSCVASGFNFTTYSMNWVRQAPGKGLEWVSYISSHSNLIYYATSVKGRFTISRDNAKNSLYLQMNSLRAEDTALYYCARGGSLHPSAGADWIDPWGQGTLVTVSS
VL: SYELTQAPSVSVSPGQTATITCSGDKLGDKFTSWYQQKPGQSPVLVIYQDSKRPSGIPERFSASNSGNTATLTISGTRAMDEADYYCQAWDSNTYVFGTGTRVAVL
notes: heavy chain of Fab236; light chain of Fab236; From an RTS,S/AS01 vaccinee; alpha-ctCSP class (IGHV3-21 or IGHV3-48 with IGLV3-21 or IGLV3-1); source: ExpiCHO cells, purified (HiTrap Protein G HP, size exclusion chromatography)
Consider B9, for which the binding result in assay [2] was “binds”.

Source of the values: publication PMC8989322 (PLoS Pathogens, 2022).
